Measurements published in publication PMC10164574, “Fission yeast Swi2 designates cell-type specific donor and stimulates Rad51-driven strand exchange for mating-type switching”.

Target: T1, Swi2N (Schizosaccharomyces pombe, UniProt Q10668 1-391)
T1 sequence: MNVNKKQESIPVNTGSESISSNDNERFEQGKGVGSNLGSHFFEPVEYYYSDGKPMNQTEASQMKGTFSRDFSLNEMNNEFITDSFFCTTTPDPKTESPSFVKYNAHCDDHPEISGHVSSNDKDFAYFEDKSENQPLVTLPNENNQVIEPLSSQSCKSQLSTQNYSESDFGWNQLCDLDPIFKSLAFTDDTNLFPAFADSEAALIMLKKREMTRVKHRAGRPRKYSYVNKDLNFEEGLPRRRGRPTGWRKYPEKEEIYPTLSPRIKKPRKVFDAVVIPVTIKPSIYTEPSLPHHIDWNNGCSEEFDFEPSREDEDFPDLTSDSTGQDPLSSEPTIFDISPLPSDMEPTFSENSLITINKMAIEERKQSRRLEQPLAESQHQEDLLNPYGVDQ
Assay: EMSA; 20 mM Tris-HCl pH 7.5, 100 mM NaCl, 5% glycerol, 1 mM DTT, room temperature 10 min; 1% agarose in TAE
Details: protein: recombinant; tags: His-SUMO removed by Ulp1; label: 5' FAM; single strand

B1: FAM-H1 (59 nt) (ssDNA)
DNA: CATGGAAACGAACGAGAGAAAACAAAGGAGAAAGACTATACATTTATATTACAAAAAAA
B1: no binding.
